In patent US20230250154A1 (CYTONICS, published 2023):
Each block holds one binder with its values, some of them ahead of it.

Legend:
Test in all cases: cell-based or functional assay
ADAMTS5 = target: T1, ADAMTS5 (human, UniProt Q9UNA0 262-622, limits assumed)
T1 sequence (looked up): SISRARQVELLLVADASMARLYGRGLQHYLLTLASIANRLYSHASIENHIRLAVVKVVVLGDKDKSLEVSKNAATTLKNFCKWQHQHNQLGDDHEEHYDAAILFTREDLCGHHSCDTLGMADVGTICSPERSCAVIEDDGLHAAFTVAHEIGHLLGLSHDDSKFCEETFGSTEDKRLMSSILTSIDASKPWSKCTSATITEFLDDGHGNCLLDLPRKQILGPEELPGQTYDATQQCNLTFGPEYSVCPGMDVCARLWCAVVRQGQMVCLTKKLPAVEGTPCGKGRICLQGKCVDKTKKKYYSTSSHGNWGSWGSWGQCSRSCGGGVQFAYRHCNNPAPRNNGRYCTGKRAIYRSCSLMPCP

MMP13 = MMP13 (human, UniProt P45452 104-471, limits assumed)
ADAMTS4 = target: T2, ADAMTS4 (human, UniProt O75173 213-685, limits assumed)
T2 sequence (looked up): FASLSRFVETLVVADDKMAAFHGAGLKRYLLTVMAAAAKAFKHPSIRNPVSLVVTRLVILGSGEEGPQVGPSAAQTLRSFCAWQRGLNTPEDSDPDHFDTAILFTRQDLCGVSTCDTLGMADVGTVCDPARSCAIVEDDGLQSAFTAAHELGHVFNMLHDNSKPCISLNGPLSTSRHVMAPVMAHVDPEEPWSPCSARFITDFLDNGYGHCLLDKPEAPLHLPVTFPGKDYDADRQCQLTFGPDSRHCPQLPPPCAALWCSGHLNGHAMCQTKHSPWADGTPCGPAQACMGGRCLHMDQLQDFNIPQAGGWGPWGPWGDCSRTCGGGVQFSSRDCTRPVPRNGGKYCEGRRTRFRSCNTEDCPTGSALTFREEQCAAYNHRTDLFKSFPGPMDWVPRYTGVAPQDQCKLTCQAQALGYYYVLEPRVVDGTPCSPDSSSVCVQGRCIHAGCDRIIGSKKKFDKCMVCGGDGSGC

- Protease Inhibition (% of WT) (ADAMTS5): 97 % of WT
- Protease Inhibition (% of WT) (MMP13): 124 % of WT
- Protease Inhibition (% of WT) (ADAMTS4): 168 % of WT
B1: Variant A2M, bait region SEQ ID NO 101 (other)
chain: SVSGKPQYMVLVPSLLHTETTEKGCVLLSYLNETVTVSASLESVRGNRSLFTDLEAENDVLHCVAFAVPKSSSNEEVMFLTVQVKGPTQEFKKRTTVMVKNEDSLVFVQTDKSIYKPGQTVKFRVVSMDENFHPLNELIPLVYIQDPKGNRIAQWQSFQLEGGLKQFSFPLSSEPFQGSYKVVVQKKSGGRTEHPFTVEEFVLPKFEVQVTVPKIITILEEEMNVSVCGLYTYGKPVPGHVTVSICRKYSDASDCHGEDSQAFCEKFSGQLNSHGCFYQQVKTKVFQLKRKEYEMKLHTEAQIQEEGTVVELTGRQSSEITRTITKLSFVKVDSHFRQGIPFFGQVRLVDGKGVPIPNKVIFIRGNEANYYSNATTDEHGLVQFSINTTNVMGTSLTVRVNYKDRSPCYGYQWVSEEHEEAHHTAYLVFSPSKSFVHLEPMSHELPCGHTQTVQAHYILNGGTLLGLKKLSFYYLIMAKGGIVRTGTHGLLVKQEDMKGHFSISIPVKSDIAPVARLLIYAVLPTGDVIGDSAKYDVENCLANKVDLSFSPSQSLPASHAHLRVTAAPQSVCALRAVDQSVLLMKPDAELSASSVYNLLPEKDLTGFPGPLNDQDDEDCINRHNVYINGITYTPVSSTNEKDMYSFLEDMGLKAFTNSKIRKPKMCPQLEQYEMHGPEGLRVGEEEGGGFYESDVMGRGHARLVHVEEPHTKLRKYFPETWIWDLVVVNSAGVAEVGVTVPDTITEWKAGAFCLSEDAGLGISSTASLRAFQPFFVELTMPYSVIRGEAFTLKATVLNYLPKCIRVSVQLEASPAFLAVPVEKEQAPHCICANGRQTVSWAVTPKSLGNVNFTVSAEALESQELCGTEVPSVPEHGRKDTVIKPLLVEPEGLEKETTFNSLLCPSGGEVSEELSLKLPPNVVEESARASVSVLGDILGSAMQNTQNLLQMPYGCGEQNMVLFAPNIYVLDYLNETQQLTPEIKSKAIGYLNTGYQRQLNYKHYDGSYSTFGERYGRNQGNTWLTAFVLKTFAQARAYIFIDEAHITQALIWLSQRQKDNGCFRSSGSLLNNAIKGGVEDEVTLSAYITIALLEIPLTVTHPVVRNALFCLESAWKTAQEGDHGSHVYTKALLAYAFALAGNQDKRKEVLKSLNEEAVKKDNSVHWERPQKPKAPVGHFYEPQAPSAEVEMTSYVLLAYLTAQPAPTSEDLTSATNIVKWITKQQNAQGGFSSTQDTVVALHALSKYGAATFTRTGKAAQVTIQSSGTFSSKFQVDNNNRLLLQQVSLPELPGEYSMKVTGEGCVYLQTSLKYNILPEKEEFPFALGVQTLPQTCDEPKAHTSFQISLSVSYTGSRSASNMAIVDVKMVSGFIPLKPTVKMLERSNHVSRTEVSSNHVLIYLDKVSNQTLSLFFTVLQDVPVRDLKPAIVKVYDYYETDEFAIAEYNAPCSKDLGNADYKDDDDKGASHHHHHH

- Protease Inhibition (% of WT) (ADAMTS5): 354 % of WT
- Protease Inhibition (% of WT) (MMP13): 127 % of WT
- Protease Inhibition (% of WT) (ADAMTS4): 187 % of WT
B2: Variant A2M, bait region SEQ ID NO 102 (other)
chain: SVSGKPQYMVLVPSLLHTETTEKGCVLLSYLNETVTVSASLESVRGNRSLFTDLEAENDVLHCVAFAVPKSSSNEEVMFLTVQVKGPTQEFKKRTTVMVKNEDSLVFVQTDKSIYKPGQTVKFRVVSMDENFHPLNELIPLVYIQDPKGNRIAQWQSFQLEGGLKQFSFPLSSEPFQGSYKVVVQKKSGGRTEHPFTVEEFVLPKFEVQVTVPKIITILEEEMNVSVCGLYTYGKPVPGHVTVSICRKYSDASDCHGEDSQAFCEKFSGQLNSHGCFYQQVKTKVFQLKRKEYEMKLHTEAQIQEEGTVVELTGRQSSEITRTITKLSFVKVDSHFRQGIPFFGQVRLVDGKGVPIPNKVIFIRGNEANYYSNATTDEHGLVQFSINTTNVMGTSLTVRVNYKDRSPCYGYQWVSEEHEEAHHTAYLVFSPSKSFVHLEPMSHELPCGHTQTVQAHYILNGGTLLGLKKLSFYYLIMAKGGIVRTGTHGLLVKQEDMKGHFSISIPVKSDIAPVARLLIYAVLPTGDVIGDSAKYDVENCLANKVDLSFSPSQSLPASHAHLRVTAAPQSVCALRAVDQSVLLMKPDAELSASSVYNLLPEKDLTGFPGPLNDQDDEDCINRHNVYINGITYTPVSSTNEKDMYSFLEDMGLKAFTNSKIRKPKMCPQLEQYEMHGPEGLRVGGYPGSSRGFYESDVMGRGHARLVHVEEPHTKLLRKYFPETWIWDLVVVNSAGVAEVGVTVPDTITEWKAGAFCLSEDAGLGISSTASLRAFQPFFVELTMPYSVIRGEAFTLKATVLNYLPKCIRVSVQLEASPAFLAVPVEKEQAPHCICANGRQTVSWAVTPKSLGNVNFTVSAEALESQELCGTEVPSVPEHGRKDTVIKPLLVEPEGLEKETTFNSLLCPSGGEVSEELSLKLPPNVVEESARASVSVLGDILGSAMQNTQNLLQMPYGCGEQNMVLFAPNIYVLDYLNETQQLTPEIKSKAIGYLNTGYQRQLNYKHYDGSYSTFGERYGRNQGNTWLTAFVLKTFAQARAYIFIDEAHITQALIWLSQRQKDNGCFRSSGSLLNNAIKGGVEDEVTLSAYITIALLEIPLTVTHPVVRNALFCLESAWKTAQEGDHGSHVYTKALLAYAFALAGNQDKRKEVLKSLNEEAVKKDNSVHWERPQKPKAPVGHFYEPQAPSAEVEMTSYVLLAYLTAQPAPTSEDLTSATNIVKWITKQQNAQGGFSSTQDTVVALHALSKYGAATFTRTGKAAQVTIQSSGTFSSKFQVDNNNRLLLQQVSLPELPGEYSMKVTGEGCVYLQTSLKYNILPEKEEFPFALGVQTLPQTCDEPKAHTSFQISLSVSYTGSRSASNMAIVDVKMVSGFIPLKPTVKMLERSNHVSRTEVSSNHVLIYLDKVSNQTLSLFFTVLQDVPVRDLKPAIVKVYDYYETDEFAIAEYNAPCSKDLGNADYKDDDDKGASHHHHHH

- Protease Inhibition (% of WT) (ADAMTS5): 309 % of WT
- Protease Inhibition (% of WT) (MMP13): 52 % of WT
- Protease Inhibition (% of WT) (ADAMTS4): 168 % of WT
B3: Variant A2M, bait region SEQ ID NO 103 (other)
chain: SVSGKPQYMVLVPSLLHTETTEKGCVLLSYLNETVTVSASLESVRGNRSLFTDLEAENDVLHCVAFAVPKSSSNEEVMFLTVQVKGPTQEFKKRTTVMVKNEDSLVFVQTDKSIYKPGQTVKFRVVSMDENFHPLNELIPLVYIQDPKGNRIAQWQSFQLEGGLKQFSFPLSSEPFQGSYKVVVQKKSGGRTEHPFTVEEFVLPKFEVQVTVPKIITILEEEMNVSVCGLYTYGKPVPGHVTVSICRKYSDASDCHGEDSQAFCEKFSGQLNSHGCFYQQVKTKVFQLKRKEYEMKLHTEAQIQEEGTVVELTGRQSSEITRTITKLSFVKVDSHFRQGIPFFGQVRLVDGKGVPIPNKVIFIRGNEANYYSNATTDEHGLVQFSINTTNVMGTSLTVRVNYKDRSPCYGYQWVSEEHEEAHHTAYLVFSPSKSFVHLEPMSHELPCGHTQTVQAHYILNGGTLLGLKKLSFYYLIMAKGGIVRTGTHGLLVKQEDMKGHFSISIPVKSDIAPVARLLIYAVLPTGDVIGDSAKYDVENCLANKVDLSFSPSQSLPASHAHLRVTAAPQSVCALRAVDQSVLLMKPDAELSASSVYNLLPEKDLTGFPGPLNDQDDEDCINRHNVYINGITYTPVSSTNEKDMYSFLEDMGLKAFTNSKIRKPKMCPQLEQYEMHGPEGLRVGGARGLEGGFAGLPNGGEEGVEEGKLRKYFPETWIWDLVVVNSAGVAEVGVTVPDTITEWKAGAFCLSEDAGLGISSTASLRAFQPFFVELTMPYSVIRGEAFTLKATVLNYLPKCIRVSVQLEASPAFLAVPVEKEQAPHCICANGRQTVSWAVTPKSLGNVNFTVSAEALESQELCGTEVPSVPEHGRKDTVIKPLLVEPEGLEKETTFNSLLCPSGGEVSEELSLKLPPNVVEESARASVSVLGDILGSAMQNTQNLLQMPYGCGEQNMVLFAPNIYVLDYLNETQQLTPEIKSKAIGYLNTGYQRQLNYKHYDGSYSTFGERYGRNQGNTWLTAFVLKTFAQARAYIFIDEAHITQALIWLSQRQKDNGCFRSSGSLLNNAIKGGVEDEVTLSAYITIALLEIPLTVTHPVVRNALFCLESAWKTAQEGDHGSHVYTKALLAYAFALAGNQDKRKEVLKSLNEEAVKKDNSVHWERPQKPKAPVGHFYEPQAPSAEVEMTSYVLLAYLTAQPAPTSEDLTSATNIVKWITKQQNAQGGFSSTQDTVVALHALSKYGAATFTRTGKAAQVTIQSSGTFSSKFQVDNNNRLLLQQVSLPELPGEYSMKVTGEGCVYLQTSLKYNILPEKEEFPFALGVQTLPQTCDEPKAHTSFQISLSVSYTGSRSASNMAIVDVKMVSGFIPLKPTVKMLERSNHVSRTEVSSNHVLIYLDKVSNQTLSLFFTVLQDVPVRDLKPAIVKVYDYYETDEFAIAEYNAPCSKDLGNADYKDDDDKGASHHHHHH
